Positions of bridges follow the written chain, without caps; N, C: chain ends. No end group written: not given here.
Experiments:
factor H SCR 1-4 (fH1-4) [1] = target: T1, factor H SCR 1-4 (fH1-4) (human, UniProt P08603 19-264); experiment: SPR, biotinylated peptide captured on streptavidin chip, fragment injected
T1 construct: domain: SCR 1-4; also called N-terminal fragment of factor H; regulatory fH1-4 fragment
Description: The binding of factor H with surface-bound 5C6 peptide was further characterized using surface plasmon resonance (SPR) on a ProteOn XPR36 instrument (Bio-Rad Inc., Hercules, Calif.) using PBST (10 mM sodium phosphate, 150 mM NaCl, 0.005% Tween 20) as running buffer. Streptavidin (50 μg/ml in 10 mM sodium acetate pH 5.0) was immobilized on a GLC sensor chip at 30° C. using amine coupling. The biotinylated 5C6 peptide and a biotinylated control peptide (linear compstatin; see above) were captured on separate streptavidin-coated channels to a density of ˜200 resonance units (RU). Purified factor H (Complement Technologies, Tyler, Tex.) or recombinant fragments fH1-4 and fH19-20 were injected at a concentration of 100 nM for 2 rain at a flow rate of 25 μl/min with a dissociation phase of 6 min. A single injection of 2 M NaCl for 30 s was used to regenerate the surface between injections. […]
The binding activity and specificity was further validated using SPR assays, by simultaneously injecting factor H or its fragments over biotinylated 5C6 peptide and the control peptide, which were captured on a streptavidin-coated sensor chip. […] While a significant SPR response could also be detected for the fH19-20 fragment, this interaction was not stable and the signal rapidly returned to baseline. […]

Human factor H [2] = target: T2, Human factor H (human, UniProt P08603 19-1231); experiment: ELISA, biotinylated peptide on coated streptavidin, purified factor H detected by polyclonal antibody
T2 construct: mature; Plasma-derived protein; also called fH
Description: (§1) Two approaches were used to evaluate the binding of synthetic peptides to factor H. First, we used peptide-phage competition assays, in which serially diluted synthetic peptide was added to its parent phage at the step of phage binding to coated factor H. The rest of the steps were performed as described above for monoclonal phage ELISA. Second, ELISA experiments were used to evaluate the binding of factor H to the immobilized peptide. Microtiter plates were coated with streptavidin (New England Biolabs) at 10 μg/ml in PBS at 4° C. overnight, and saturated with 2% BSA in PBS. After washing, either the biotinylated 5C6 peptide or a biotinylated control peptide (linear compstatin; […]) was added at 10 μg/ml and allowed to bind at RT for 30 min. […] After 1 h of binding, the plates were washed, and bound factor H was detected with goat anti-human factor H polyclonal antibody (Quidel, San Diego, Calif.), followed by HRP-conjugated rabbit anti-goat IgG (Bio-Rad). […]
(§2) The direct binding between the peptide and factor H was initially evaluated in an ELISA experiment, in which the biotinylated 5C6 peptide and a biotinylated control peptide of similar size and charge (i.e., linear compstatin) were captured by coated streptavidin and the binding of purified factor H was detected by polyclonal antibodies.

Human factor H [3] = target: T2, Human factor H; experiment: peptide-phage competition ELISA on coated factor H
Description: Two approaches were used to evaluate the binding of synthetic peptides to factor H. First, we used peptide-phage competition assays, in which serially diluted synthetic peptide was added to its parent phage at the step of phage binding to coated factor H. The rest of the steps were performed as described above for monoclonal phage ELISA. Second, ELISA experiments were used to evaluate the binding of factor H to the immobilized peptide. Microtiter plates were coated with streptavidin (New England Biolabs) at 10 μg/ml in PBS at 4° C. overnight, and saturated with 2% BSA in PBS. After washing, either the biotinylated 5C6 peptide or a biotinylated control peptide (linear compstatin; […]) was added at 10 μg/ml and allowed to bind at RT for 30 min. The wells were washed again, and factor H serially diluted in PBS, starting with 2.5 μg/ml, was added. After 1 h of binding, the plates were washed, and bound factor H was detected with goat anti-human factor H polyclonal antibody (Quidel, San Diego, Calif.), followed by HRP-conjugated rabbit anti-goat IgG (Bio-Rad). […]

factor H SCR 1-4 (fH1-4) [4] = target: T1, factor H SCR 1-4 (fH1-4); experiment: monoclonal phage ELISA
Description: (§3) Microtiter wells were coated overnight with either factor H or BSA at 5 μg/mL in PBS at 4° C., and saturated with 5% non-fat milk in PBST for 1 h. Completely separated individual phage plaques from the third round of screening were picked and amplified. Phage particles of each amplified individual phage plaque were added to both factor H- and BSA-coated wells in parallel and allowed to bind at RT for 1 h. After six washes with PBST, bound phages were detected with HRP-conjugated anti-M13 monoclonal antibody (GE Healthcare), using ABTS (Roche) for color development. Clones that bound to factor H but not to BSA were considered positive; single-stranded DNA from positive clones was prepared using an M13 kit (Qiagen, Valencia, Calif.) and sequenced by the DNA sequencing facility of the University of Pennsylvania.
(§4) To localize the binding sites on factor H of the positive clones, we further tested each clone by monoclonal phage ELISA for binding to factor H and its N- and C-terminal fragments, i.e. fH1-4 and fH19-20.

fH19-20 [5] = target: T3, fH19-20 (human, UniProt P08603 1107-1231); experiment: monoclonal phage ELISA
T3 construct: domain: SCR19-20; also called factor H SCR19-20; C-terminal two SCR of factor H
T3 sequence (looked up): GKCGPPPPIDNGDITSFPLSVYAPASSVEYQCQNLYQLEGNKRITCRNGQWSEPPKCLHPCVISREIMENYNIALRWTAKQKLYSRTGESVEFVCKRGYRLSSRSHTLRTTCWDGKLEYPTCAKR
Description: as §3, §4

BSA = target: T4, BSA (UniProt P02769 25-607); experiment: monoclonal phage ELISA, BSA coated at 5 µg/mL
T4 construct: Only printed as 'BSA'
T4 sequence (P02769 25-607 limits assumed): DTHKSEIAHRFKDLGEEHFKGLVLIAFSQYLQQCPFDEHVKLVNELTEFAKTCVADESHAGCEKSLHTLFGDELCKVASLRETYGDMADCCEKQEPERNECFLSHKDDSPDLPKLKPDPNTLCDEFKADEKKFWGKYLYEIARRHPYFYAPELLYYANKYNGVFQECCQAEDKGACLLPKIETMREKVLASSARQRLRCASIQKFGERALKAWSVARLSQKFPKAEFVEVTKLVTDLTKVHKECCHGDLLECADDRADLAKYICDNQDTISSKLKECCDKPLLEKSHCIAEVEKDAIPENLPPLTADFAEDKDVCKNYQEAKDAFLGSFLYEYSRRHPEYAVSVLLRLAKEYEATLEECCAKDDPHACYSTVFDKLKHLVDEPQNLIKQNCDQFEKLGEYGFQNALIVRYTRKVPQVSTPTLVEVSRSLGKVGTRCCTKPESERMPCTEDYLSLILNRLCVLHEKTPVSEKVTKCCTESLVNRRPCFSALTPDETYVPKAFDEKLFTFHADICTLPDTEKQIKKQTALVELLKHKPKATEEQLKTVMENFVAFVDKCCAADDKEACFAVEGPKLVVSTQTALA
Description: as §3

Human factor H [6] = target: T2, Human factor H; experiment: monoclonal phage ELISA on coated factor H
Description: as §3

fH19-20 [7] = target: T3, fH19-20; experiment: monoclonal phage ELISA on coated fragment
Description: as §3, §4

Human factor H [8] = target: T2, Human factor H; experiment: ELISA, biotinylated peptide on coated streptavidin, factor H detected by polyclonal antibody
Description: as §1, §2

factor H SCR 1-4 (fH1-4) [9] = target: T1, factor H SCR 1-4 (fH1-4); experiment: monoclonal phage ELISA on coated fragment
Description: as §3, §4

T1 sequence (P08603 19-264 limits assumed): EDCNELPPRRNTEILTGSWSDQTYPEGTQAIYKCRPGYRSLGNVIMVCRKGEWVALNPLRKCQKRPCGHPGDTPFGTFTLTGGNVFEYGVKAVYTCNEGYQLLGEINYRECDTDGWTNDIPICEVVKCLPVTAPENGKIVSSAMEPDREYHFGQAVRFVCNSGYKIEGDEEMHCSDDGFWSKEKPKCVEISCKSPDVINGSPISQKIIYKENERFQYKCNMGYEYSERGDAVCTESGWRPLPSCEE

Binder	binding result (factor H SCR 1-4 (fH1-4) [4])	binding result (fH19-20 [5])	binding result (BSA)	binding result (Human factor H [6])	also measured
ASSSRCTYDHWCSH-{K(biotin)-NH2} (disulfide 6-12, Captured on coated streptavidin (polystyrene wells or SPR chips); also called immobilized 5C6 peptide; not shown: C-terminal lysine carrying biotin) [Biotinylated 5C6 peptide]	–	–	–	–	binding result (factor H SCR 1-4 (fH1-4) [1]): no binding (tested: 100 nM); binding result (Human factor H [2]): binds
ASSSRCTYDHWCSH-NH2 (disulfide 6-12; N-terminus assumed; SMILES C[C@H](N)C(=O)N[C@@H](CO)C(=O)N[C@@H](CO)C(=O)N[C@@H](CO)C(=O)N[C@@H](CCCNC(=N)N)C(=O)N[C@H]1CSSC[C@@H](C(=O)N[C@@H](CO)C(=O)N[C@@H](Cc2c[nH]cn2)C(N)=O)NC(=O)[C@H](Cc2c[nH]c3ccccc23)NC(=O)[C@H](Cc2c[nH]cn2)NC(=O)[C@H](CC(=O)O)NC(=O)[C@H](Cc2ccc(O)cc2)NC(=O)[C@H]([C@@H](C)O)NC1=O, also called peptide 5C6) [Synthetic 5C6 peptide]	–	–	–	–	binding result (Human factor H [3]): binds
ASSNVCSYSYWCAH (not shown: not specified for the library) [Phage clone 5G11 (class 3, library ANL5)]	no binding	no binding	no binding	binds	–
ASSGMCFTKKTVLC (not shown: not specified for the library) [Phage clone 4A1 (class 1, library ANL4)]	–	–	no binding	binds	binding result (fH19-20 [7]): binds
IAVVQDWGHHRAT (also: biotinylated, site not given here, captured on coated streptavidin; also called LC; negative control peptide) [Biotinylated control peptide (linear compstatin, Cys-to-Ala double mutant)]	–	–	–	–	binding result (Human factor H [8]): no binding
ASSCMYSYWCTH (not shown: not specified for the library) [Phage clone 5-2B2 (class 3, library ANL5)]	no binding	no binding	no binding	binds	–
ASSFKCDYSHWCLH (not shown: not specified for the library) [Phage clone 5E10 (class 3, library ANL5)]	no binding	no binding	no binding	binds	–
ASPSWCSYSHWCRH (not shown: not specified for the library) [Phage clone 5D1 (class 3, library ANL5)]	no binding	no binding	no binding	binds	–
ASSSRCTYDHWCSH (also called parent phage of the 5C6 peptide; not shown: not specified for the library) [Phage clone 5C6 (class 3, library ANL5)]	no binding	–	no binding	binds	–
ASSYDVGYSHDCRF (not shown: not specified for the library) [Phage clone 5-2C6 (class 2, library ANL5)]	–	–	no binding	binds	binding result (factor H SCR 1-4 (fH1-4) [9]): binds
